According to publication doi:10.1101/2024.02.25.581584 (bioRxiv, 2024):

B1: Human Bonsai Ndc80 complex with C-terminal GFP (complex)
chain 1: MKRSSVSSGGAGRLSMQELRSQDVNKQGLYTPQTKEKPTFGKLSINKPTSERKVSLFGKRTSGHGSRNSQLGIFSSSEKIKDPRPLNDKAFIQQCIRQLCEFLTENGYAHNVSMKSLQAPSVKDFLKIFTFLYGFLCPSYELPDTKFEEEVPRIFKDLGYPFALSKSSMYTVGAPHTWPHIVAALVWLIDCIKIHTAMKESSPLFDDGQPWGEETEDGIMHNKLFLDYTIKCYESFMSGADSFDEMNAELQSKLKDLFNVDAFKLESLEAKNRALNEQIARLEQERSTANKANAERLKRLQKSADLYKDRLGLEIRKIYGEKLQFIFTNIDPKNPESPFMFSLHLNEARDYEVSDSAPHLEGLAEFQENVRKTNNFSAFLANVRKAFTATVYN
chain 2: METLSFPRYNVAEIVIHIRNKILTGADGKNLTKNDLYPNPKPEVLHMIYMRALQIVYGIRLEHFYMMPVNSEVMYPHLMEGFLPFSNLVTHLDSFLPICRVNDFETADILCPKAKRTSRFLSGIINFIHFREACRETYMEFLWQYKSSADKMQQLNAAHQEALMKLERLEKEVDEDTTVTIPSAVYVAQLYHQVSKIEWDYECEPGMVKGIHHGPSVAQPIHLDSTQLSRKFISDYLWSLVDTEW
B2: Human Bonsai Ndc80 complex, untagged (complex)
chain 1: B1 chain 1
chain 2: B1 chain 2

Experiments:
CENP-T^site1 [1] = target: T1, CENP-T^site1 (human, UniProt Q96BT3 1-242, T11D | deletion of amino acids from 76 to 106); test: TIRF microscopy of single molecules
[2] = target: T2, CENP-T^6D (CENP-T^6D-GFP-Spy-tag) (human, UniProt Q96BT3 1-242, T11D | T27D | S47D | T85D | T195D | S201D); test: TIRF microscopy of single molecules
CENP-T^site2 = CENP-T^site2 (human, UniProt Q96BT3 1-242, T85D | deletion of amino acids from 2 to 30); test: TIRF microscopy of single molecules
CENP-T^site1 [3] = target: T1, CENP-T^site1; test: TIRF microscopy of single molecules; remark: listed apart in the source
[4] = target: T2, CENP-T^6D (CENP-T^6D-GFP-Spy-tag); test: TIRF microscopy of clusters
CENP-T^2D [5] = target: T3, CENP-T^2D (human, UniProt Q96BT3 1-242, T11D | T85D); test: TIRF microscopy of clusters
CENP-T^2D [6] = target: T3, CENP-T^2D; test: fluorescence correlation spectroscopy

Binder | fold reduction of kon of site 1 against CENP-T^2D and CENP-T^6D (model fit) (CENP-T^site1 [1]) [fold] | stoichiometry N [2] | stoichiometry N (CENP-T^site2) | stoichiometry N (CENP-T^site1 [3]) | stoichiometry N [4] | binding result (CENP-T^2D [5]) | binding result (CENP-T^2D [6])
B1 | 8 | ~2 Ndc80 molecules per CENP-T | ~1 Ndc80 molecules per CENP-T | ~1 Ndc80 molecules per CENP-T | ≤ 2 Ndc80 molecules per CENP-T | binds | –
B2 | – | – | – | – | – | – | binds
